Where “and” joins values, the source holds several entries; their conditions need not be identical. Equal entries are not always repeated.
What was measured:
[1] = biological target: Eukaryotic translation initiation factor 1 A, X-linked (human) (UniProt P47813)
[2] = biological target: AF4/FMR2 family, member 4 (human) (UniProt Q9UHB7)
[3] = biological target: Signal recognition particle 19kDa (human) (UniProt P09132)
[4] = biological target: Rtf1, Paf1/RNA polymerase II complex component, homolog (S. cerevisiae) (human) (UniProt Q92541)
[5] = biological target: p 53-regulated DDA3 (DDA3)/proline/serine-rich coiled-coil 1 (human) (UniProt Q6PGN9)
[6] = biological target: Piccolo (presynaptic cytomatrix protein) (human) (UniProt Q9Y6V0)
Sequence of Piccolo (presynaptic cytomatrix protein) (human) (Q9Y6V0 other isoform, or with tags, fused parts or gaps limits assumed): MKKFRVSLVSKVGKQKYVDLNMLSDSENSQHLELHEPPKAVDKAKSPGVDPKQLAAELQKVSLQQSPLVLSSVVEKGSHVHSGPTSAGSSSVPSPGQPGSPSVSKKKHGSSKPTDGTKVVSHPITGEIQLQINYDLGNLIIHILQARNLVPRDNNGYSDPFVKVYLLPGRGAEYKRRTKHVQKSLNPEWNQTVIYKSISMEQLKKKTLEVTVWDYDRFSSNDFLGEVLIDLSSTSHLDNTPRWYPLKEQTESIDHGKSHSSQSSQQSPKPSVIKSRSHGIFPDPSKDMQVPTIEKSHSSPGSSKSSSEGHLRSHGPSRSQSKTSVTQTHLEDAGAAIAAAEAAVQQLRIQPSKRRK

[7] = biological target: Additional sex combs like 1 (Drosophila) (human) (UniProt Q8IXJ9)
[8] = biological target: Microtubule-associated protein 2 (human) (UniProt P11137)
[9] = biological target: NIMA (never in mitosis gene a)-related kinase 7 (human) (UniProt Q8TDX7)
Aurora kinase A (human) = Aurora kinase A (human) (UniProt O14965)
[10] = biological target: Checkpoint suppressor 1/Forkhead box N3 (human) (UniProt O00409)
[11] = biological target: Calcium/calmodulin-dependent protein kinase II alpha (human) (UniProt Q9UQM7)
Sequence of Calcium/calmodulin-dependent protein kinase II alpha (human) (Q9UQM7 whole entry): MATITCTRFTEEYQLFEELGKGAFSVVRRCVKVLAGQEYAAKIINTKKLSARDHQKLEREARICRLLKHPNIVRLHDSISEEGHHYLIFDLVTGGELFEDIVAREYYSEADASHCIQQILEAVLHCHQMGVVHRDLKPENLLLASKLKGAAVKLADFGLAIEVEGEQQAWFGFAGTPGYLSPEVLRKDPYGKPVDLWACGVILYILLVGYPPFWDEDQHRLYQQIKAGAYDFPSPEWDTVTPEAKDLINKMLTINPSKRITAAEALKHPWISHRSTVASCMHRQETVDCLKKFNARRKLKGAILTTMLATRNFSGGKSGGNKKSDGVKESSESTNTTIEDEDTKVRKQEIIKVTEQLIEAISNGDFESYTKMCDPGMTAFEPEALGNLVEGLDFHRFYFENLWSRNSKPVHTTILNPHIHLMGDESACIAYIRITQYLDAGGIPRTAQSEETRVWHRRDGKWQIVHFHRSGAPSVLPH

[12] = biological target: Ubiquitin-conjugating enzyme E2S (human) (UniProt Q16763)
Sequence of Ubiquitin-conjugating enzyme E2S (human) (Q16763 whole entry): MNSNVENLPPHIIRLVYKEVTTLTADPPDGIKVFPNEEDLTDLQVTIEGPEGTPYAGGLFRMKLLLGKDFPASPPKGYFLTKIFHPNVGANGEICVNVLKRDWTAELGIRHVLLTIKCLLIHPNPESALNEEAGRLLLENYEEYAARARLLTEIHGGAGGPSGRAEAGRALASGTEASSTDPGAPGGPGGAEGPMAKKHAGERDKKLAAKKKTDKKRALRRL

[13] = biological target: CDKN2A interacting protein (human) (UniProt Q9NXV6)
Sequence of CDKN2A interacting protein (human) (Q9NXV6 whole entry): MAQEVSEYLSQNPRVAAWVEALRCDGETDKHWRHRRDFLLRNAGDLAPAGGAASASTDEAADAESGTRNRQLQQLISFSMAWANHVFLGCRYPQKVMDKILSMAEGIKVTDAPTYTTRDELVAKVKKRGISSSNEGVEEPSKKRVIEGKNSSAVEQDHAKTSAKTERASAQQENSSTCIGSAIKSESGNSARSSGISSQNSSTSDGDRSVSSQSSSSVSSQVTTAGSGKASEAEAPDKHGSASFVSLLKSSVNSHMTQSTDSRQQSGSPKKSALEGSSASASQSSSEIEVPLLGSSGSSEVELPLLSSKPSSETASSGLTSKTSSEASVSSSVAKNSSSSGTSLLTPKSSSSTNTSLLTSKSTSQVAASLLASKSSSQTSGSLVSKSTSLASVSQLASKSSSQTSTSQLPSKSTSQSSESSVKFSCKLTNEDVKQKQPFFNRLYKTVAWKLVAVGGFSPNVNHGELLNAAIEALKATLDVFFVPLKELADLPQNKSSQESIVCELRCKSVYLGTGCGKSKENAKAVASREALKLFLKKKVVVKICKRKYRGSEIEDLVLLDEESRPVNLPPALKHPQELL

[14] = biological target: RAD51 associated protein 1 (human) (UniProt Q96B01)
[15] = biological target: Calcium channel, voltage-dependent, beta 1 subunit (human) (UniProt Q02641)
[16] = biological target: WD repeat domain 5 (human) (UniProt P61964)
[17] = biological target: Vaccinia related kinase 1 (human) (UniProt Q99986)
[18] = biological target: Eukaryotic translation initiation factor 1 A, Y-linked (human) (UniProt O14602)
Sequence of Eukaryotic translation initiation factor 1 A, Y-linked (human) (O14602 whole entry, the tested form may be a part): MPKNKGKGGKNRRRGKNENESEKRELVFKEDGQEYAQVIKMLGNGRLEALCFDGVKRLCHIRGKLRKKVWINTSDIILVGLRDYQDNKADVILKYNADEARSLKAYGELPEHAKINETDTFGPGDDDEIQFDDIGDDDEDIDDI

[19] = biological target: Potassium channel tetramerisation domain containing 18 (human) (UniProt Q6PI47)
Sequence of Potassium channel tetramerisation domain containing 18 (human) (Q6PI47 whole entry, the tested form may be a part): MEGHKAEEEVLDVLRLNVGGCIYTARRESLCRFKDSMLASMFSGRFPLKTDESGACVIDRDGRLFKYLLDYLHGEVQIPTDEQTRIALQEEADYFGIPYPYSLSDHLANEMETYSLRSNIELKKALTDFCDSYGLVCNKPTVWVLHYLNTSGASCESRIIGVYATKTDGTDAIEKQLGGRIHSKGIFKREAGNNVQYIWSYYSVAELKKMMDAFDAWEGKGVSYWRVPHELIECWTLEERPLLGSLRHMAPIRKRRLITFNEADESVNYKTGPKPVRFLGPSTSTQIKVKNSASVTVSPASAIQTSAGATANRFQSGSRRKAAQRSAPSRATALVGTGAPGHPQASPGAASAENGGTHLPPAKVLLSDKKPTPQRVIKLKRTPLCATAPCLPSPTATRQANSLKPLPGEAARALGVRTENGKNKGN

[20] = biological target: Choline kinase alpha (human) (UniProt P35790)
Cyclin B3 (human) = Cyclin B3 (human) (UniProt Q8WWL7)
Sequence of Cyclin B3 (human) (Q8WWL7 1-111 limits assumed): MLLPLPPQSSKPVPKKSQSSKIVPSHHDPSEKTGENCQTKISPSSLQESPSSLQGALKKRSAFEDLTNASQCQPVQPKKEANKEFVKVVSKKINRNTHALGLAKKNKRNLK

[21] = biological target: Nuclear speckle splicing regulatory protein 1 (human) (UniProt Q9H0G5)
[22] = biological target: Elongation factor 1 homolog (ELF1, S. cerevisiae) (human) (UniProt P60002)
[23] = biological target: DIM1 dimethyladenosine transferase 1 homolog (S. cerevisiae) (human) (UniProt Q9UNQ2)
Sequence of DIM1 dimethyladenosine transferase 1 homolog (S. cerevisiae) (human) (Q9UNQ2 whole entry): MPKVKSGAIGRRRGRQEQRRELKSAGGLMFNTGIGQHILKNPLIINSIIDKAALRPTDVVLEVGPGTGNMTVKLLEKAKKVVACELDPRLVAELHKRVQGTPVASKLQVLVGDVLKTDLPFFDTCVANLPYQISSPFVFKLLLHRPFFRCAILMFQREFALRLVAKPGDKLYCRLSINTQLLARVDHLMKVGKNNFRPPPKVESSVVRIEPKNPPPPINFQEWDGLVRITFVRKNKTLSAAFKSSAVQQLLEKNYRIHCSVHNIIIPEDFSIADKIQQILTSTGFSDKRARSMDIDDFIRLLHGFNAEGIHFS

[24] = biological target: Protein kinase C, iota (human) (UniProt P41743)
Sequence of Protein kinase C, iota (human) (P41743 10-596 limits assumed): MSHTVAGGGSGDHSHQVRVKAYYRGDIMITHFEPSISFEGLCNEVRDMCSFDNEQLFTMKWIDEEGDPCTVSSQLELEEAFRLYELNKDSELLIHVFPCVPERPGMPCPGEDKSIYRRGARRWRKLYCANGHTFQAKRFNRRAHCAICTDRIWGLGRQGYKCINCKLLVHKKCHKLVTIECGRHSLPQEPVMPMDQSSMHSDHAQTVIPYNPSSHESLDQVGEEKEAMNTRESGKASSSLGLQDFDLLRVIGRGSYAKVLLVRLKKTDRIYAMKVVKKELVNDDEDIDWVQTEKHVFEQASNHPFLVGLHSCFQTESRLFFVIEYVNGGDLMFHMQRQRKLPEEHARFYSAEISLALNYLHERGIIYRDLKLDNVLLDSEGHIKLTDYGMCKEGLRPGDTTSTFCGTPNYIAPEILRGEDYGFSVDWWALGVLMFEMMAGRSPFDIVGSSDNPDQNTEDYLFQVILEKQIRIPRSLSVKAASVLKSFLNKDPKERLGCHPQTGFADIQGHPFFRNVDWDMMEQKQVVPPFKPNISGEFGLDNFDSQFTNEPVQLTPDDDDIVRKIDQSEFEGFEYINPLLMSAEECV

[25] = biological target: WAS/WASL interacting protein family, member 1 (human) (UniProt O43516)
[26] = biological target: Immunoglobulin (CD79A) binding protein 1 (human) (UniProt P78318)
Sequence of Immunoglobulin (CD79A) binding protein 1 (human) (P78318 whole entry): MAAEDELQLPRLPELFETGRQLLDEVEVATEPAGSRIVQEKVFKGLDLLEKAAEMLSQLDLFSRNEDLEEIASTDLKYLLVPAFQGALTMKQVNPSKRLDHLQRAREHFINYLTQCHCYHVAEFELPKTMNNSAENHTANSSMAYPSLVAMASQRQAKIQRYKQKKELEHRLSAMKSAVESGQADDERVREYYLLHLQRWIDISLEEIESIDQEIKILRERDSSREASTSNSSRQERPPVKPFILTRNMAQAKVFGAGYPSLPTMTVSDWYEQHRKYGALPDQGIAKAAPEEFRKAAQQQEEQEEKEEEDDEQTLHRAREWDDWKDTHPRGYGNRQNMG

Cortactin (human) = Cortactin (human) (UniProt Q14247)
Sequence of Cortactin (human) (Q14247 other isoform, or with tags, fused parts or gaps limits assumed): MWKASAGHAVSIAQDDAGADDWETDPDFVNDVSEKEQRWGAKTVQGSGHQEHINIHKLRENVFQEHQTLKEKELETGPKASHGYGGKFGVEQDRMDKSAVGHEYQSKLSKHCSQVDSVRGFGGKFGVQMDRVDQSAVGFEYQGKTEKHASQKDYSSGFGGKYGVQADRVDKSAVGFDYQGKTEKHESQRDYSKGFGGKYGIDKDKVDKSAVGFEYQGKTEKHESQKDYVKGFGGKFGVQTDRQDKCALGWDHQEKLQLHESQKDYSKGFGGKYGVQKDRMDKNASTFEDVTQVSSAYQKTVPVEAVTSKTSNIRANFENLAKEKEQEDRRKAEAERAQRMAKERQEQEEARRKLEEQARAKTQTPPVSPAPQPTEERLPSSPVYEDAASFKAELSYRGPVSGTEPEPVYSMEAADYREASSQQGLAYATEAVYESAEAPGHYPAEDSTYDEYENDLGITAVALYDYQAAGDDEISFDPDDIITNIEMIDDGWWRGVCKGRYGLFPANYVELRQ

[27] = biological target: SLAIN motif family, member 2 (human) (UniProt Q9P270)

Sequence of Signal recognition particle 19kDa (human) (P09132 whole entry): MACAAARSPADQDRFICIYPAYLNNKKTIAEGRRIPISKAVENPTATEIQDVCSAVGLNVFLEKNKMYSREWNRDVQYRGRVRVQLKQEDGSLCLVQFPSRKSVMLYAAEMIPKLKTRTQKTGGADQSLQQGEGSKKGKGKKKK
Sequence of Eukaryotic translation initiation factor 1 A, X-linked (human) (P47813 whole entry): as the sequence (O14602 whole entry, the tested form may be a part) above, with L50M counted along it
Sequence of AF4/FMR2 family, member 4 (human) (Q9UHB7 other isoform, or with tags, fused parts or gaps limits assumed): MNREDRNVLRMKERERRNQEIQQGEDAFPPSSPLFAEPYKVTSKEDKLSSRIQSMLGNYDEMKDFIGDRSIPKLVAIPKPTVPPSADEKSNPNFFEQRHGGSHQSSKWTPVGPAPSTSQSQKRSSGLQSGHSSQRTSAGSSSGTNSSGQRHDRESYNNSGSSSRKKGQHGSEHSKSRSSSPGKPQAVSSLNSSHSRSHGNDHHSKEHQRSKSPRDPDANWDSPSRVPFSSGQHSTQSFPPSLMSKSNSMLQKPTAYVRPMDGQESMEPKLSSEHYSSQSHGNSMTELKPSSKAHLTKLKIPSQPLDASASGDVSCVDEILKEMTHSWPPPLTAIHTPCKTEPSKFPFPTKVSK

biotinylated full-length Dengue virus capsid (DENV C) protein (other; other documents disagree on this pair)
Signal Intensity [1]: 997
Z-score [1]: 3.85

biotinylated full-length Dengue virus capsid (DENV C) protein
Signal Intensity [2]: 1250
Z-score [2]: 5.02
Signal Intensity [3]: 972 and 818
Z-score [3]: 3.73 and 3.02
Signal Intensity [4]: 882
Z-score [4]: 3.32
Signal Intensity [5]: 822
Z-score [5]: 3.04
Signal Intensity [6]: 929
Z-score [6]: 3.53
Signal Intensity [7]: 1070
Z-score [7]: 4.19
Signal Intensity [8]: 875
Z-score [8]: 3.29
Signal Intensity [9]: 918
Z-score [9]: 3.49
Signal Intensity (Aurora kinase A (human)): 1160
Z-score (Aurora kinase A (human)): 4.59
Signal Intensity [10]: 918
Z-score [10]: 3.48
Signal Intensity [11]: 969
Z-score [11]: 3.72
Signal Intensity [12]: 1350
Z-score [12]: 5.49
Signal Intensity [13]: 1030
Z-score [13]: 4.01
Signal Intensity [14]: 1140
Z-score [14]: 4.52
Signal Intensity [15]: 1020
Z-score [15]: 3.94
Signal Intensity [16]: 840
Z-score [16]: 3.13
Signal Intensity [17]: 845
Z-score [17]: 3.15
Signal Intensity [18]: 852
Z-score [18]: 3.18
Signal Intensity [19]: 856
Z-score [19]: 3.2
Signal Intensity [20]: 1740
Z-score [20]: 7.26
Signal Intensity (Cyclin B3 (human)): 854
Z-score (Cyclin B3 (human)): 3.19
Signal Intensity [21]: 928
Z-score [21]: 3.53
Signal Intensity [22]: 816
Z-score [22]: 3.02
Signal Intensity [23]: 1670
Z-score [23]: 6.93
Signal Intensity [24]: 841
Z-score [24]: 3.13
Signal Intensity [25]: 1160
Z-score [25]: 4.59
Signal Intensity [26]: 1940
Z-score [26]: 8.18
Signal Intensity (Cortactin (human)): 3080
Z-score (Cortactin (human)): 13.4
Signal Intensity [27]: 2570
Z-score [27]: 11.1
